Literature values in publication PMC4643947.
Like-named read-outs stand apart in the source and are kept apart here.

Legend:
[1] = molecular target: Nrf2 14mer peptide (Homo sapiens)
[2] = molecular target: p62 (Homo sapiens) (UniProt Q13501)
[3] = molecular target: p62 (Homo sapiens) (UniProt Q13501); remark: listed apart in the source
[4] = molecular target: Nrf2 10mer peptide (Homo sapiens)

Kd [1]: 61.9 nM
Kd [2]: 118 nM
Kd [3]: 2000 nM
Kd [4]: 30.1 nM
Substance: Keap1 (from UniProt Q14145)
